What was measured:
[1] = target: myosin S2Δ, the first 126 amino acids of myosin sub-fragment 2 (rat heart) (rat); test: MST; as a2 (pH 7, 50 mmol/liter KCl); 30 °C
[2] = target: myosin S2Δ, the first 126 amino acids of myosin sub-fragment 2 (rat heart) (rat); test: MST; as a2 (pH 7, 50 mmol/liter KCl); 25 °C
[3] = target: myosin S2Δ, the first 126 amino acids of myosin sub-fragment 2 (rat heart) (rat); test: MST; as a2 (pH 7, 50 mmol/liter KCl); biphasic binding curve of Fig. S3, the temperature of the curve is not given
[4] = target: myosin S2Δ, the first 126 amino acids of myosin sub-fragment 2 (rat heart) (rat); test: MST; as a2 but 180 mmol/liter KCl; pH 7; 30 °C
[5] = target: isolated native thin filaments (UniProt P68032); test: co-sedimentation; high-velocity co-sedimentation of C1mC2 constructs with isolated native thin filaments; performed as described in ref. 15
[6] = target: myosin S2Δ, the first 126 amino acids of myosin sub-fragment 2 (rat heart) (rat); test: MST; Monolith NT.115; 100 nmol/liter Alexa 647–myosin S2Δ fixed, cMyBP-C construct titrated; 20 mmol/liter MOPS pH 7, 1 mmol/liter EDTA, 50 mmol/liter KCl, 1 mmol/liter DTT, 0.05% Tween 20; 21 °C
[7] = target: isolated native thin filaments (UniProt P68032)

| Substance | Kd [1] [µM] | Kd [2] [µM] | Kd of the additional low-affinity binding interaction [3] [µM] | Kd [4] [µM] | Kd [5] [µM] | Kd [6] [µM] | isometric force of demembranated rat ventricular trabeculae in relaxing solution (pCa 9) with 40 μmol/liter C1mC2, as percent of that during full Ca2+ activation [7] [%] |
| --- | --- | --- | --- | --- | --- | --- | --- |
| C1mC2, unphosphorylated N-terminal fragment of rat cardiac myosin-binding protein-C containing the Ig-domains C1 and C2 and the intervening m-domain (domain or fragment) | 21.3 | 58.5 | 400 | 364 | 23 | 106 | 57 |
| PKA tris-phosphorylated C1mC2 of rat cardiac myosin-binding protein-C (domain or fragment) | – | – | – | – | 57 | – | – |
